Ends that are not written are not given here.
How the values were obtained:
Test in all cases: cell-based or functional assay
[1] = target: Neurolysin (Nln) as used for the A50 and Amax values of Tables 2 and 5
[2] = target: recombinant human thimet oligopeptidase (R & D systems, product number 3439-ZN) (human, UniProt P52888 1-689, limits assumed)
[3] = target: recombinant human neprilysin (R & D systems, product number 1182-ZNC) (human, UniProt P08473 52-750)
[4] = target: recombinant human ACE2 (R & D systems, product number 933-ZN) (human, UniProt Q9BYF1 18-740)
recombinant human ACE2 (R & D systems, product number 933-ZN), sequence (Q9BYF1 18-740 limits assumed): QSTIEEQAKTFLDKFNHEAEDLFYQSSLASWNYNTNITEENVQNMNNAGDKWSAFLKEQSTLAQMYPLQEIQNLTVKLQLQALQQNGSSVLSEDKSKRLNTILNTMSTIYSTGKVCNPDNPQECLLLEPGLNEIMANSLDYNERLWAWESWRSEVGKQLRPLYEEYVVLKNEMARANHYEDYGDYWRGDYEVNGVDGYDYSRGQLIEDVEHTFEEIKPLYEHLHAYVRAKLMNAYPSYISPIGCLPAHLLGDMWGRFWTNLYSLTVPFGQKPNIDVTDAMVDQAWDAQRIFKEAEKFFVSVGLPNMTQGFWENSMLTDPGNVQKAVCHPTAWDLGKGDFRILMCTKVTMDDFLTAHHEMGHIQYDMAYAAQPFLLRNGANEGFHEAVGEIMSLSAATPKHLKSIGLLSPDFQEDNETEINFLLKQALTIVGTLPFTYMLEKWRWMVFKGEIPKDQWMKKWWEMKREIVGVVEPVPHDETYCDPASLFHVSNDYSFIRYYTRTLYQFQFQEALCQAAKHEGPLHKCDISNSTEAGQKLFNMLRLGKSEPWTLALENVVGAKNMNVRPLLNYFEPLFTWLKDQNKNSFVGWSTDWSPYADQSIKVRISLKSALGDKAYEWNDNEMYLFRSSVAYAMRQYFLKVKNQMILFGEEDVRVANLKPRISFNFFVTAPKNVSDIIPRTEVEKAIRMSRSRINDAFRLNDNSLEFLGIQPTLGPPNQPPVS

[5] = target: recombinant human angiotensin converting enzyme (R & D systems, product number 929-ZN) (human, UniProt P12821 30-1261)
recombinant human angiotensin converting enzyme (R & D systems, product number 929-ZN), sequence (P12821 30-1261 limits assumed): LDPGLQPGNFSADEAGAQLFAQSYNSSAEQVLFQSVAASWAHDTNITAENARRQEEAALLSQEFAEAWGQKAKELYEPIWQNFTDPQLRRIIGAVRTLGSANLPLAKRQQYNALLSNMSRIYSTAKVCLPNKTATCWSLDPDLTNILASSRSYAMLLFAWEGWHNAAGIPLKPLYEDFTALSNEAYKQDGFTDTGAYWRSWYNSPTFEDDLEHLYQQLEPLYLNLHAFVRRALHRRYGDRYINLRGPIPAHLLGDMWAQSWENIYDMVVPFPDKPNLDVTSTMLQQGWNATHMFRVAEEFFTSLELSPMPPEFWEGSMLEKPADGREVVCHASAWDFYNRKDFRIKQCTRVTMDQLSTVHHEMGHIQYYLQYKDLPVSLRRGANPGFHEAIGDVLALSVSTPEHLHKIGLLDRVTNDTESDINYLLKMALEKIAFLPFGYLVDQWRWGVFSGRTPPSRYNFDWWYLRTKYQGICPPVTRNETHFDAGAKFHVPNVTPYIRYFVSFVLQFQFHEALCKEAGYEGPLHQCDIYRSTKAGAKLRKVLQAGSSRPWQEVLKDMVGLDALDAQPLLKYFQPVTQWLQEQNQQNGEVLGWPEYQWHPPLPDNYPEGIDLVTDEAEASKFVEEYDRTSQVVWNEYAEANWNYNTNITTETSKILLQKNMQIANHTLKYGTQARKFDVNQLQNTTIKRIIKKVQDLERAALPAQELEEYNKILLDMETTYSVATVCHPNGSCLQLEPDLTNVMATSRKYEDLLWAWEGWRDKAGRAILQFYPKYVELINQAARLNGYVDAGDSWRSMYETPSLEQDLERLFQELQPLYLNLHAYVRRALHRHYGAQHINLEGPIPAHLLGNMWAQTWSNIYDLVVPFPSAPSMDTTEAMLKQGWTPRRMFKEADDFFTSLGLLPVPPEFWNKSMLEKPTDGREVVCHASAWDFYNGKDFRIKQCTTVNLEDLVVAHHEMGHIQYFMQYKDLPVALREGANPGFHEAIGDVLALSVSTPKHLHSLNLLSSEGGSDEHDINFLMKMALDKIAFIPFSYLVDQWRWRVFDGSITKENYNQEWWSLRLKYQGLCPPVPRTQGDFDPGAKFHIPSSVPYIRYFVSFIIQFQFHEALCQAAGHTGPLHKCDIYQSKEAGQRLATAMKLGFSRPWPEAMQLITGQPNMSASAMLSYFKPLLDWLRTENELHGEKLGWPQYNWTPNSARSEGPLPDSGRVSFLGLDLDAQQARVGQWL

recombinant human thimet oligopeptidase (R & D systems, product number 3439-ZN), sequence (P52888 whole entry): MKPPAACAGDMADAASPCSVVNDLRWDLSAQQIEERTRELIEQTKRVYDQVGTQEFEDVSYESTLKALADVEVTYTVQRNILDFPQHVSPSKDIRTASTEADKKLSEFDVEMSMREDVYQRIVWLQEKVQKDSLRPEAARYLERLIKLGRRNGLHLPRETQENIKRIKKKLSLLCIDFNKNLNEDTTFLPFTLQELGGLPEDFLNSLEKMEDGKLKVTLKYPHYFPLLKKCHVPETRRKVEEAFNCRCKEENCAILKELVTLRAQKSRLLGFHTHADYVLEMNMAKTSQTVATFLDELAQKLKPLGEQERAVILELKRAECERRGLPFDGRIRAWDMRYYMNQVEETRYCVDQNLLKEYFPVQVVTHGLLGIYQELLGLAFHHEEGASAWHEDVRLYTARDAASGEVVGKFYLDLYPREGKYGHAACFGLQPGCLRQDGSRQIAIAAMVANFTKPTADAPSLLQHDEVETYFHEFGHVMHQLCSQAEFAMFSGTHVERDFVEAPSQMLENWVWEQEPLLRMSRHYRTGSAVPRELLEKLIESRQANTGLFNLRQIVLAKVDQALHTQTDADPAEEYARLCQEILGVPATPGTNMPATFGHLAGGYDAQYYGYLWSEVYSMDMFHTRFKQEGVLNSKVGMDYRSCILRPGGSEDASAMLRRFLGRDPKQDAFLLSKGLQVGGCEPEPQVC
recombinant human neprilysin (R & D systems, product number 1182-ZNC), sequence (P08473 52-750 limits assumed): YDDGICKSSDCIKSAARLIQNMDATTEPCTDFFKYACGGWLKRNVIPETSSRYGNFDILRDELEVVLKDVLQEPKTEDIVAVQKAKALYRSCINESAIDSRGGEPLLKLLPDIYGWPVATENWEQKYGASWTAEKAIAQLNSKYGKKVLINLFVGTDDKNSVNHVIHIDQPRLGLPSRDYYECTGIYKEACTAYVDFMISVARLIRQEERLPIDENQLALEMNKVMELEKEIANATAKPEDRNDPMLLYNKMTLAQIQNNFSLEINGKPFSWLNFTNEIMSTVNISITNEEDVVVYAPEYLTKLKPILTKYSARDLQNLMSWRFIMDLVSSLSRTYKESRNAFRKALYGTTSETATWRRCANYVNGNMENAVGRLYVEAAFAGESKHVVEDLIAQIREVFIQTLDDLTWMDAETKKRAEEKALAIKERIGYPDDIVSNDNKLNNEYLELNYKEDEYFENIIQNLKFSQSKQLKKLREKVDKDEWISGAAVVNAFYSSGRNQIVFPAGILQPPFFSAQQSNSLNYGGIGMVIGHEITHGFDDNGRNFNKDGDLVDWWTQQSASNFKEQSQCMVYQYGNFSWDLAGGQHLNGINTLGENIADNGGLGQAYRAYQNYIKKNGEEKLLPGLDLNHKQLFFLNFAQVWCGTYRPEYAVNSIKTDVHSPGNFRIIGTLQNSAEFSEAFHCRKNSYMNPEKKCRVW

Binder	A50 [1] [µM]	Amax [1] [%]	inhibition of activity at 300 µM (quenched fluorescent substrate hydrolysis) [2] [%]	inhibition of activity at 300 µM (quenched fluorescent substrate hydrolysis) [3] [%]	inhibition of activity at 300 µM (quenched fluorescent substrate hydrolysis) [4] [%]	inhibition of activity at 300 µM (quenched fluorescent substrate hydrolysis) [5] [%]
HF [His-Phe]	130	573				
HP [His-Pro]		502				
His-His (also: mixture of D- and L-His at both positions) [NlnA#2, NSC 523374, D,L-histidyl-D,L-histidine]			15.6	1.6	10.9	12.2
HW [His-Trp]		440				
HY [NlnA#1, NSC 374121, L-histidyl-L-tyrosine]		467	25.9	2.9	13.4	22.6
